Source: the supplement of paper PMC9732359
± gives the uncertainty stated by the source.

Test: protein stability index of a GFP-peptide fusion (yeast GPS) (PSI 1-4); higher = more stable; sorted into four equal gates, so the index is relative within each strain
Method in brief: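 Plasmids isolated from each sorting gate were PCR-amplified and Illumina-sequenced, and barcodes assigned the reads to strains. The gates, four of equal size, were set by GFP/Cherry fluorescence ratio on mid-log cultures in leucine-free medium. These cultures were yeast carrying a pooled library of tiled 17-residue yeast protein peptides fused downstream of GFP on a plasmid that also expresses Cherry. The protein stability index is the sum of every gate's read frequency times its gate number.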

Sequence	protein stability index (doa10∆)	protein stability index (pdr5∆)	protein stability index (san1∆)	protein stability index (ubr1∆)
DRIIHTWRTQLAASEIG [ECM29]	1.65 ± 0.056	1.84 ± 0.06	1.65 ± 0.062	1.83 ± 0.035
ILNEVFTNPSIVKVFHG [RRP6]	1.24 ± 0.083	1.42 ± 0.075	1.2 ± 0.18	1.29 ± 0.05
EHFSHFGHIMEDFQVLR [YDL088C/ASM4]	3.03 ± 0.063	2.92 ± 0.045	2.54 ± 0.059	2.44 ± 0.045
QVVVDAITNTGPREDTT [RPS5]	2.95 ± 0.064	2.95 ± 0.058	2.82 ± 0.064	2.73 ± 0.042
ETGKLLSGLAQRKTNGA [BRN1]	–	–	2.97 ± 0.11	–
FFMSERSSRLHIVYSLL [YML103C/NUP188]	1.91 ± 0.06	2.33 ± 0.079	1.55 ± 0.11	2.08 ± 0.053
ILEEGSSGMGAFGGSGG [RPN10]	3.36 ± 0.13	3 ± 0.16	3.04 ± 0.15	3.28 ± 0.081
NIVSDAGANDTSNNETN [GRR1]	2.79 ± 0.051	2.37 ± 0.2	1.82 ± 0.15	2.71 ± 0.099
QKETQKVTKIWSKESNY [PRP28]	1.63 ± 0.04	2.1 ± 0.041	2.3 ± 0.047	1.95 ± 0.027
TSSNIVLETHESGIKPY [RPT6]	2.55 ± 0.097	2.76 ± 0.061	2.68 ± 0.099	2.47 ± 0.061
NFNPDNGFAPISEVMED [FAS1]	3.3 ± 0.085	3.06 ± 0.042	3.2 ± 0.044	3.17 ± 0.033
TPEMNVTNNVEEGEFII [TAF14]	–	2.43 ± 0.26	–	3.62 ± 0.22
VDPLKSLEDKILRMGAF [RRI1]	3.19 ± 0.12	3.04 ± 0.14	2.88 ± 0.12	2.94 ± 0.094
ANVFRLENQKDLVIVDE [MTW1]	3.49 ± 0.12	3.36 ± 0.15	3.4 ± 0.091	3.43 ± 0.074
ATLGIDPPKGILLYGPP [RPT1]	2.97 ± 0.078	2.96 ± 0.077	2.95 ± 0.13	2.98 ± 0.047
KKHGKTDYFLPKNYSLH [YJL039C/NUP192]	2.76 ± 0.057	2.63 ± 0.069	2.71 ± 0.049	2.35 ± 0.049
SSKAATPDTKNFFHAKK [SNF12]	3.12 ± 0.058	2.96 ± 0.051	2.99 ± 0.048	2.93 ± 0.047
NTKEIAVDLEHHDYRSY [RRP6]	2.93 ± 0.06	3.07 ± 0.048	3.15 ± 0.056	3.054 ± 0.03
GKELDSLDLNNLELGGL [PGD1]	3.08 ± 0.12	3.25 ± 0.12	2.99 ± 0.085	3.24 ± 0.066
YSKNNPNLLFSMCGFEV [PRP8]	2.96 ± 0.093	2.69 ± 0.093	2.17 ± 0.076	2.4 ± 0.092
NTNELKEVSSFLMGIFN [MTR3]	2.93 ± 0.067	3.06 ± 0.061	2.92 ± 0.061	3.1 ± 0.046
GGGYFSAAGMTAAIDSV [FAS1]	3.11 ± 0.15	3.23 ± 0.11	3 ± 0.24	3.07 ± 0.15

Sequence	protein stability index (doa10∆)	protein stability index (pdr5∆)	protein stability index (san1∆)	protein stability index (ubr1∆)
NKAQAKMDKRAKNSDSA [RPL8A]	3.43 ± 0.094	3.38 ± 0.11	3.27 ± 0.047	3.54 ± 0.067
NEPTQKDEEETEYFENK [DSN1]	3.58 ± 0.27	3.54 ± 0.23	2.71 ± 0.29	3.12 ± 0.23
ETKADGILLETISVPQI [RRP6]	2.58 ± 0.076	2.52 ± 0.056	2.51 ± 0.061	2.26 ± 0.053
SYALSMEKDKLKNLLRS [SNU114]	2.97 ± 0.25	2.24 ± 0.1	2.31 ± 0.16	2.68 ± 0.13
KPYDINVVLVTNDRLNR [DIS3]	1.69 ± 0.085	2.92 ± 0.098	2.96 ± 0.094	3.08 ± 0.094
MSPFLRKVVKPSSLNSD [SRB4]	2.41 ± 0.058	2.87 ± 0.061	2.03 ± 0.081	2.34 ± 0.044
NWAKFTATASLGVIHKG [RPN2]	1.81 ± 0.06	1.81 ± 0.053	1.91 ± 0.069	2 ± 0.061
ETISNVAKTAPNSNKTH [SNF2]	2.96 ± 0.055	3 ± 0.061	2.96 ± 0.035	3.07 ± 0.045
IKIVSDKKVLVKVQPEG [RPT6]	2.75 ± 0.1	2.83 ± 0.09	2.85 ± 0.12	2.74 ± 0.07
MSASNANDFQLTIVTCK [SRB8]	2.33 ± 0.044	2.41 ± 0.037	2.42 ± 0.043	2.03 ± 0.031
DNVSKNALDKLRNNLNS [YCG1]	3.23 ± 0.12	3.19 ± 0.13	2.24 ± 0.29	3.01 ± 0.17
SKICLSHFSLDQFITSL [ITC1]	2.21 ± 0.06	2.86 ± 0.076	2.17 ± 0.081	2.69 ± 0.057
TREDVSPHYNSQKQTLI [SSN3]	2.16 ± 0.05	2.71 ± 0.05	2.15 ± 0.048	2.81 ± 0.051
PALVGKLRGDLREAPAD [SNF6]	3.19 ± 0.21	3.12 ± 0.19	2.24 ± 0.19	2.5 ± 0.17
DTRITPSKVSKIDSHVV [PRE6]	2.76 ± 0.078	3.09 ± 0.064	2.46 ± 0.14	2.72 ± 0.063
NTLLVTGPFKVNGVPLR [RPL6B]	2.74 ± 0.12	2.66 ± 0.082	2.63 ± 0.081	2.74 ± 0.045
IESALKSKLDQDSTSEN [RPN2]	2.76 ± 0.072	3.04 ± 0.073	2.87 ± 0.076	2.95 ± 0.1
VTHDCYRVTLESILQMN [RPC34]	3.29 ± 0.28	2.39 ± 0.27	2.66 ± 0.16	–
EEARRKHVSGKILGFVY [RPS22A]	2.82 ± 0.2	2.67 ± 0.18	2.97 ± 0.16	2.9 ± 0.097
LLNILITYGIIKVPTYI [SRB8]	1.57 ± 0.083	1.52 ± 0.09	–	1.03 ± 0.047
DPALLRPGRIDRKIEFP [RPT6]	3.18 ± 0.075	3.32 ± 0.077	3.05 ± 0.057	3.26 ± 0.048
QFINLAGYKKLGLKFDD [QCR7]	2.43 ± 0.2	3.61 ± 0.14	–	–
